The assay has as its target mouse PARP13 ZnF5-WWE1-WWE2 (residues 476 to 673) (mouse) (UniProt Q3UPF5). The assay can be described thus: SEC-MALS. A general note: In gel filtration, larger molecules generally elute earlier.

For one substance, percent of the scattering mass in the dimer peak and stoichiometry N results are on record in article doi:10.1101/2021.12.15.472832.

As usually defined, the stoichiometry N is the number of molecules, sites or subunits per partner or assembly. On to “mouse PARP13 ZnF5-WWE1-WWE2 (residues 476 to 673) (from UniProt Q3UPF5 476-673) (domain or fragment)”, for which the percent of the scattering mass in the dimer peak is 4% and the stoichiometry N is 2.
